Test: soluble on expression in E. coli; label from the status in PepcDB or PDB records

**Q.** For “MSKKKQDVSIVRSSAAEYLTFIAAMGDQSQSVEMRYEDENIWLTQKMMASLYDVTVPAINQHLKRIFDDGELLPEAVLKDYLITAADGKQYRTKHYNLQAIISVGFKINNVRAVQFRKWAGQIVKDYTIQGWTMDVERLKKGHLFTDEYFDRQLEYIREIRLSERKFYQKVTDLYATAFDYDKDALTTREFFALVQNKLHWAVHRHTAAELIVSRADAGRTNMGLTHWAAAPQGKIIKSDVSIAKNYLNVQEMEYLERIVSIYLDFAELQAMRKIPMSMQDWARRLDGFLEFNGNEILMGPGKVSQEQAKLHAESEFEQYRIVQDRLFQSDFDRLLLQLESKNKEEGQ”, which “soluble on expression in E. coli” value is on record?
**A.** Its value is “not soluble”.

**Q.** With “MGSDKIHHHHHHMNPADNILWGNIIKVHGVKGEVLVQVFSDDLTDYETLESVFVEIKQKQIPFFLSTFNFATQKRCILSFEDVTTVEQAKPLVGADIYIPVSKMAEADESRLSYQAIIGFEVMDTIQGKLGVISNFFQKTGQDLLMMDYQDAEILIPVTEEIVHSVDVKTKQVITTLPEGLIEIYLNEDASEPDAD” as the sequence, how does the “soluble on expression in E. coli” value read?
**A.** Its value is “not soluble”.

**Q.** With “MARHSALAQAERLEPLLTTNPLHGATLERIVTHLHDEYGWEELARRVPVKCFQNEPSVGSSLKFLRKTPWAREQVEAEYVKLARREDANPLIDALKRGQALDFTGVSQTKLHAALGWMLRHVEQNAQNLQLYFLPTLAHIQDVNFWPDAEPLPLLNLAIDRSALGAGDYEPGVVAELLRRGADANDPRFWPPLLHTVDVEGQAYQSKTRAPRTDLFDLLLAHGADPALEDSRGNTARSMAEAYGLRAVINKLNTLPAVSGSLEHHHHHH” as the sequence, how does the “soluble on expression in E. coli” value read?
**A.** Its value is “soluble”.

**Q.** With “MNNNDVLRKLRYTFNFNDKQMVAIFASAGEEVSREQVSQWLKKDTDSDFVALFDTKLAVFLNGFINEKRG” as the sequence, how does the “soluble on expression in E. coli” value read?
**A.** The value was “not soluble”.

**Q.** With “MGSSHHHHHHSSGLVPRGSTSEVIEDEKQFYSKAKTYWKQIPPTVDGMLGGYGHISSIDINSSRKFLQRFLREGPNKTGTSCALDCGAGIGRITKRLLLPLFREVDMVDITEDFLVQAKTYLGEEGKRVRNYFCCGLQDFTPEPDSYDVIWIQWVIGHLTDQHLAEFLRRCKGSLRPNGIIVIKDNMAQEGVILDDVDSSVCRDLDVVRRIICSAGLSLLAEERQENLPDEIYHVYSFALR” as the sequence, how does the “soluble on expression in E. coli” value read?
**A.** The value was “soluble”.

**Q.** Which “soluble on expression in E. coli” value does the source give for “MGHHHHHHSHMATSEILPSFVATMDASNFSFWQVLCSWLSNSPNYEEITKWYLGWKSMFSDQVLAHPSVKDKFNEALDIMNRAVSSNVGAYMQPGARENIAYLTHTERRKDFQYEAMQERREAENMAQRGIGVAASSVPMNFKDLIETKAEEHNIVFMPVIGKRHEGKQLYTFGRIVIYIDRGVVFVQGEKTWVPTSLQSLIDMAK” here?
**A.** Its value is “not soluble”.

**Q.** With “MGSSHHHHHHSSGLVPRGSHMVESKNTELSQGTWLNKPKSVFQEAGKVTLETDEKTDFWRETFYGFTRDSGHFLGVETGSAFTAQVRVQGSYESLYDQAGIMVRIDDGHWLKAGIEISDGHAMLSSVLTNGKSDWSTAVYGGNARDFWLRVTVEKGVLRIQVSSDKKTWPLVRLAPFPTSDHYLVGPMACTPERGGLKVTFSEWSLTAPLGKALHDLS” as the sequence, how does the “soluble on expression in E. coli” value read?
**A.** Its value is “soluble”.

**Q.** For “QMNTVFIKNEGVTEGEIATIGEHTAEISGVSTGTDWTRDYSQSGALRSLLGTVSTEKQGLPAEEVDEYLKKGYARNDRVGTSYLEKQYEDVLQGKKAKSEVVLDNNGKIVSQTPISKGEKGSNLKLTID”, which “soluble on expression in E. coli” value is on record?
**A.** The value was “not soluble”.

**Q.** Which “soluble on expression in E. coli” value does the source give for “GPGSMLHFPITPPPIEIEYLDNDPLEFAVRTEARKWRFDDMGYMRELAFVRINNNPTVGDFRNMSPDERRNLFWGSDRQDFFRHLTCTLTGSPEHLYHRGW” here?
**A.** Its value is “not soluble”.

**Q.** With “MCVRLENENFKAELSESGAELTSLKSKNTDNEYIWTANSSYWGRHAPILFPIVGKVKDNKYRIADKVYNLSQHGFARDMEFEVEDNASDRAVFKLVWNDETLEKYPYKFELRVIYVLKDSTVDVTYNVKNVDDKDIFFSIGAHPGFNCPVIGKQSENDELQFEDYYIEFEKRETTGVVKLNSSNLLSRNTSPFLYASNILNLSEKLFKQGALILKDLDSTSISLKNDKNTTSVTVSFEGFPYVGLWSKPEGAPFVCIEPWFGHADYEDFNGDFREKEDGLKLEVGKEFECTYSITIGELEHHHHHH” as the sequence, how does the “soluble on expression in E. coli” value read?
**A.** The value was “soluble”.

**Q.** Which “soluble on expression in E. coli” value does the source give for “TETRLLQARVSDLQRLSSLGRMVASLAHQVRTPLSSAMLYASNLGAPNLPPATRERFQSKLMDRLHDLEKQVNDMLLFAKGGDNKVIKPFTIAQLVAEYQPMVETALKNNNIDYFLEVEEEQTE” here?
**A.** The value was “not soluble”.

**Q.** Which “soluble on expression in E. coli” value does the source give for “MGSDKIHHHHHHMNLEEENTIFKPLYSLKHSPINAYFSKNSDDFVVRERPLYEFSGKGEHLILHINKKDLTTNEALKILSEASGVKIRDFGYAGLKDKQGSTFQYLSMPKKFESFLSNFSHPKLKILEIFTHENKLRIGHLKGNSFFIRLKKVLPSDALKLEQALMNLDKQGFANYFGYQRFGKFGDNYKEGLEILRGKKMKNVKMKEFLISAFQSELFNRYLSKRVELSHFANDFSEKELIQIYKISKEEAKELKKQEQFFKLLKGEVLGHYPFGKCFLCEDLSAELGRFKARDISAMGLLIGAKAYETGEGLALNLENEIFKDTLEFKAKMQGSRRFMWGYLEELKWRYDEEKAHFCIEFFLQKGSYATVVLEEILHKNLFE” here?
**A.** Its value is “not soluble”.

**Q.** For “GKSTTLFSRHTKAIVWGMQTRAVQGMLDFDYVCSRDEPSVAAMVYPFTGDHKQKFYWGHKEILIPVFKNMADAMRKHPEVDVLINFASLRSAYDSTMETMNYAQIRTIAIIAEGIPEALTRKLIKKADQKGVTIIGPATVGGIKPGCFKIGNTGGMLDNILASKLYRPGSVAYVSRSGGMSNELNNIISRTTDGVYEGVAIGGDRYPGSTFMDHVLRYQDTPGVKMIVVLGEIGGTEEYKICRGIKEGRLTKPIVCWCIGTCATMFSSEVQFGHAGACANQASETAVAKNQALKEAGVFVPRSFDELGEIIQSVYEDLVANGVIVPAQEVPPPTV”, which “soluble on expression in E. coli” value is on record?
**A.** The value was “soluble”.

**Q.** For “MGSDKIHHHHHHMNLKQITYFLAVAEAGQMTAAAKQLHMAQPPLSYQLKALEDELGVRLFERGSRGVRLTGSGQQFMTYAQQIVETVAAAENAARRSGEGEIGTLALGLTSSAGDVLPKQKLQAFNRRYPQVEFALYEDNTYGILDKLRRNILDLAIVRTPFNDDGLASCRLSSDHMIAVAAASQPLPATLTIPDLKQQPLIVYRRFSSLFKTTFAEYGITPIIAVLCDDARTALHWAQMGMGVALVPATMAALASQQSHLAVIDYEPWVTHMTLVWQPEALHNPLVARFVGQLSGGESEKYSK”, which “soluble on expression in E. coli” value is on record?
**A.** Its value is “not soluble”.

**Q.** With “NGWVWKLGMNLTHYKNKVTELPLKDMPQSGVNKLQVGRSVYDFYMKEWAGVDPDNGNPLWYMDEKDANDNLTGKRVTTSDYASANYYYVNKSSLPKVYGGFNTSLSWKGFDLSAIFAYSIGGYIYNRDITMILHNGSLEGRDWSTEILKRWTPENRYTDVPALSTTSNNWNSASTRFLQNNSYMRLKNLTLSYDLPKQWISKLALSSVQVFVQGDNLFTIHRNQGLDPEQGITGITYYRYPAMRTISGGINLSF” as the sequence, how does the “soluble on expression in E. coli” value read?
**A.** Its value is “not soluble”.

**Q.** Which “soluble on expression in E. coli” value does the source give for “MDEYQQTIRALSDRIVVAQTPIRILDAVKWDDTVRKNFLAAKGKALPAVDRAYYENRPLGFDSVALKQEFQNIERDVTRQLGQFNPVGQIMRRMCREYRMVVRMLEARGTPDFGLISQELYGAASDAFHAGDPTLADLGLMLSDYLNNIAGRGDLKDEPKILTAKDAVSLLQSRLNRVFGEAEETIRVFESDGIVADAAAGADYIKIRTDAMFNERDVRALEVHEGLVHVGTTLNGQNQPICTFLSKGPPSSTVTQEGLAILMEVIAFASYPSRLRKLTNRTRAIHMAEQGADFLQVFEFYREQGFGMSESYGNASRVFRGSVPDGLPFTKDLSYLKGFIMVYNYIQLAVRKGKLEQVPLLFCGKTTLEDMRTLRQLVDEGLVVAPKYLPEQFRDMNALSAWMCFSNFLNHLSLDRIEADYSNILLEHHHHHH” here?
**A.** Its value is “soluble”.

**Q.** Which “soluble on expression in E. coli” value does the source give for “MSLAHEMRDGSSRGLRIDFHVHLGVYADHKPWVTEWIKQSQPDPGEYDAYIERYSDPGAFEELLAAEGVDYACVLAELCPITTGICSNEQVEAFCKGRKRLIPFCSINPHLTTDLGGELRRLVETEGFRGLKLYPSYQHYYLNDPRVYPLYQAAQELGIPVLIHTGSSVFKGTRIKYCDPIHLDDVANDFPSLNLVMAHSGRGFWYDRAFFLSKLHSNLYMEVSGLPPSKLMTYFPELARNTDKVIFGSDWPGASQIKRNMDAIGALPLPAEGVEKILGGNAARLLNFEGHHHHHH” here?
**A.** Its value is “soluble”.

**Q.** With “MSISTIRRQVKNVAYNFSDAQVKVREATSNDPWGPSTALMSEIADLTHNPMAFTEIMSIVWKRLNDSGKNWRHVYKSLVLLDFLIKCGHEKVAQQCRENVFTIETLKDFQHVEDNRDQGLNIREKAKQITSLLSDDERLKNERTRFILTRNKFKQNNPGPVGAESRRSNRHHVTDASLDPEYEDARPSTATEEEMQLQIALALSREECEKADEMRKSDDARLQMALEESQKLQDADRLATTKQGTVSSGQLTQSALDDLLSLGVGELVSGNNDQPSSSSAWGMNDPWGAPQASASLNTNDQMFANSMSNNDPWATSTVAQPVAATAPNSDPFASWDAPAPAATTPSTMPTSSSFDLLGGDLLSPTNSLSANINTNNSTNGTRKTPENFLGENSNLVNLDNLLGSGTPSTTGGNPFLTGAAPANANPFAAQQRKSPTLNEMRAAQGQAPPIPSMAPRGTLPQANPFANPF” as the sequence, how does the “soluble on expression in E. coli” value read?
**A.** Its value is “not soluble”.

**Q.** With “MSLRISTNQIYQRGLDNLLTQQERLARLQDQQASGIRVRTPSDDPVASAQIELIKQRINNIELFQNNRQAADSALRLEEGILSNAVNSLHRLREIQIQAGNPSLSEEDRKTLAVEAQALLNQLLDYANTKDSNGSYMFSGSKSLTQPVSLNLSGQYVYNGDSTQRFQAVTTSLLVAVNDTGDNVFMRIPSGNGRFAIRETLTPNTGTASVSSGSVTNEAAFVPDNYTMTFALNSQGNLVVMVSGTLSGNVIPPSGLPDDAPLYQEGSAIGFNGMEMVVSGLPKAGDSFSISPAKNESIFSTVQRMINNLNKPYTSSVEKAATQTENNQLLAQIDSALGHILSVQSDLGARLNQLETAEKANNDYLDISAATLKKLREIDEGHHHHHH” as the sequence, how does the “soluble on expression in E. coli” value read?
**A.** The value was “soluble”.

**Q.** Which “soluble on expression in E. coli” value does the source give for “MRGSHHHHHHTDPALRAASTFTSDTLPADHKAAIRQMKHALRAQLGDVQQIFNQLSDDIATRVAEINALKAQGDAVWPVLSYADIKAGHVTAEQREQIKRRGCAVIKGHFPREQALGWDQSMLDYLDRNRFDEVYKGPGDNFFGTLSASRPEIYPIYWSQAQMQARQSEEMANAQSFLNRLWTFESDGKQWFNPDVSVIYPDRIRRRPPGTTSKGLGAHTDSGALERWLLPAYQRVFANVFNGNLAQYDPWHAAHRTEVEEYTVDNTTKCSVFRTFQGWTALSDMLPGQGLLHVVPIPEAMAYVLLRPLLDDVPEDELCGVAPGRVLPVSEQWHPLLIEALTSIPKLEAGDSVWWHCDVIHSVAPVENQQGWGNVMYIPAAPMCEKNLAYAHKVKAALEKGASPGDFPREDYETNWEGRFTLADLNIHGKRALGMDVGLCGR” here?
**A.** The value was “soluble”.

**Q.** With “MGSDKIHHHHHHMSKSEQISHMTDVMAKFVGYTGKVLPDDVTAKLEDLHKKETSKLADVIFTTMIENQRLAKELDRPSCQDTGVIQFLVECGTNFPLIGELEALLREAVIKATVDSPLRHNSVETFDEYNTGKNVGKGTPTVFWEIVPNSDQCSIYTYMAGGGCSLPGKAMVLMPGAGYEGVTRFVLDVMTSYGLNACPPLLVGVGVATSVETAALLSKKALMRPIGSHNENERAASLEKMLEDGINKIGLGPQGMSGNTSVMGVNIENTARHPSTIGVAVNVGCWSHRKGHIVFDAALNYTITSHSGVNF” as the sequence, how does the “soluble on expression in E. coli” value read?
**A.** Its value is “not soluble”.
